{"source": "FireProtDB (doi:10.1016/s0301-4622(99)00119-2)", "parents": {"B1": {"name": "Cytochrome b5, P00171 (parent)", "chain": "MAEESSKAVKYYTLEEIQKHNNSKSTWLILHYKVYDLTKFLEEHPGGEEVLREQAGGDATENFEDVGHSTDARELSKTFIIGELHPDDRSKITKPSESIITTIDSNPSWWTNWLIPAISALFVALIYHLYTSEN"}}, "variants_of": "B1", "conditions": "Bos taurus, pH 7, Thermal, Absorbance, Sodium phosphate 100 mM, structure 1CYO, whole UniProt chain shown", "data": [{"variant": "MAEESSKAVKYYTLEEIQKHNNSKSTWLILHYKVYDLTKFLEEHPGGEEELREQAGGDATENFEDVGHSTDARELSKTFIIGELHPDDRSKITKPSESIITTIDSNPSWWTNWLIPAISALFVALIYHLYTSEN", "note": "[V50E]", "values": [{"measurement": "ddG of mutation (higher = less stable)", "setting": "66.7 °C", "value": 2.68, "unit": "kcal/mol"}, {"measurement": "ddG of mutation (higher = less stable)", "setting": "77.6 °C", "value": 2.06, "unit": "kcal/mol"}]}, {"variant": "MAEESSKAVKYYTLEEIQKHNNSKSTWLILHYKVYDLTKFLEEHPGGEEYLREQAGGDATENFEDVGHSTDARELSKTFIIGELHPDDRSKITKPSESIITTIDSNPSWWTNWLIPAISALFVALIYHLYTSEN", "note": "[V50Y]", "values": [{"measurement": "ddG of mutation (higher = less stable)", "setting": "66.7 °C", "value": 1.53, "unit": "kcal/mol"}, {"measurement": "ddG of mutation (higher = less stable)", "setting": "77.6 °C", "value": 1.55, "unit": "kcal/mol"}]}, {"variant": "MAEESSKAVKYYTLEEIQKHNNSKSTWLILHYKVYDLTKFLEEHPGGEEHLREQAGGDATENFEDVGHSTDARELSKTFIIGELHPDDRSKITKPSESIITTIDSNPSWWTNWLIPAISALFVALIYHLYTSEN", "note": "[V50H]", "values": [{"measurement": "ddG of mutation (higher = less stable)", "setting": "77.6 °C", "value": 1.39, "unit": "kcal/mol"}]}]}
